The record followed here is publication PMC6220335, “Molecular structure of promoter-bound yeast TFIID” (Nature Communications, 2018).

Holding throughout (assay): cross-linking; 50 µg purified TFIID, 3 mM BS3, 2 h at 25 °C; trypsin, SCX fractionation, Orbitrap Fusion MS; pLink and Nexus, 5% FDR
Common to all, as to details: both partners purified

In experiment [1] the target is T1, Taf1 (TBP-associated factor 1), subunit of Komagataella phaffii TFIID (Komagataella phaffii, UniProt F2QMX2 1-1010).
T1 construct: Taf1, TFIID subunit of the yeast Komagataella phaffii (formerly Pichia pastoris); native subunit of the purified complex; also called KpTaf1; source: endogenous, K. phaffii nuclear extract; co-purified in TFIID by SBP-tagged Taf2 (streptavidin beads, sucrose gradient)
T1 sequence (looked up): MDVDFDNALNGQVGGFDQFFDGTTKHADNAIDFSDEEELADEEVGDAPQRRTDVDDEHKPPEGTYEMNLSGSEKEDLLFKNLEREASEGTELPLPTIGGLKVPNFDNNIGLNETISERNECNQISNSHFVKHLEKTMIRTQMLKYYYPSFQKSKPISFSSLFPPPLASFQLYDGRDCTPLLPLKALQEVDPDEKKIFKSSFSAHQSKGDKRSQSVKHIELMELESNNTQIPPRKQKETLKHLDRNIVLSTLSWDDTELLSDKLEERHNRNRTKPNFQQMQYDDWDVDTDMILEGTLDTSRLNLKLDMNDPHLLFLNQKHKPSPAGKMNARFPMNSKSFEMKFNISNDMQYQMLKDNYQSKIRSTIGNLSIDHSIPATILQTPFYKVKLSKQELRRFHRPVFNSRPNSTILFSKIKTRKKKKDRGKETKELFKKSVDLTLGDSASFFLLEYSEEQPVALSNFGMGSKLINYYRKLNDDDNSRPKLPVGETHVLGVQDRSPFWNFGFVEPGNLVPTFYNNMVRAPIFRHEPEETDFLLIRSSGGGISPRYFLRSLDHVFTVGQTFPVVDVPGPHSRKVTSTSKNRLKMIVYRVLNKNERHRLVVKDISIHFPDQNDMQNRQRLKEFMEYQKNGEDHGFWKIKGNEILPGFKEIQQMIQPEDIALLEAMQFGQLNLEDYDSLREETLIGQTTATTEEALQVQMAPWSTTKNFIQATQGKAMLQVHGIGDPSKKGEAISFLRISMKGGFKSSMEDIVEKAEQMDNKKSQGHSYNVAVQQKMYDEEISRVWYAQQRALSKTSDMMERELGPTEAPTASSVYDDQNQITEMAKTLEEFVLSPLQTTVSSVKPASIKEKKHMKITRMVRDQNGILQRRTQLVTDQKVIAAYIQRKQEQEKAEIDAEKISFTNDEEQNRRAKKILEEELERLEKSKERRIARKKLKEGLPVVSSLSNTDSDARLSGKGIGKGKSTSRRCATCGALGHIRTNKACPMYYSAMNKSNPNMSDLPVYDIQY

Experiment [2] deals with T2, Taf2 with C-terminal streptavidin-binding peptide tag, subunit of Komagataella phaffii TFIID (Komagataella phaffii, UniProt F2QRH9 1-1571).
T2 construct: Taf2, TFIID subunit of the yeast Komagataella phaffii (formerly Pichia pastoris); residues 36 to 1194 modelled in the cryo-EM map; bait of the purification; also called SBP-tagged Taf2; source: K. phaffii strain with SBP-tagged Taf2, nuclear extract; purified (streptavidin beads, biotin elution, sucrose gradient)

Experiment [3] addresses T3, Taf5, subunit of Komagataella phaffii TFIID (Komagataella phaffii, UniProt F2QWD3 1-722).
T3 construct: Taf5, TFIID subunit of the yeast Komagataella phaffii (formerly Pichia pastoris); WD40 repeat and NTD (residues 99–243) modelled in the cryo-EM map; two copies in holo-TFIID; source: endogenous, K. phaffii nuclear extract; co-purified in TFIID by SBP-tagged Taf2 (streptavidin beads, sucrose gradient)
T3 sequence (looked up): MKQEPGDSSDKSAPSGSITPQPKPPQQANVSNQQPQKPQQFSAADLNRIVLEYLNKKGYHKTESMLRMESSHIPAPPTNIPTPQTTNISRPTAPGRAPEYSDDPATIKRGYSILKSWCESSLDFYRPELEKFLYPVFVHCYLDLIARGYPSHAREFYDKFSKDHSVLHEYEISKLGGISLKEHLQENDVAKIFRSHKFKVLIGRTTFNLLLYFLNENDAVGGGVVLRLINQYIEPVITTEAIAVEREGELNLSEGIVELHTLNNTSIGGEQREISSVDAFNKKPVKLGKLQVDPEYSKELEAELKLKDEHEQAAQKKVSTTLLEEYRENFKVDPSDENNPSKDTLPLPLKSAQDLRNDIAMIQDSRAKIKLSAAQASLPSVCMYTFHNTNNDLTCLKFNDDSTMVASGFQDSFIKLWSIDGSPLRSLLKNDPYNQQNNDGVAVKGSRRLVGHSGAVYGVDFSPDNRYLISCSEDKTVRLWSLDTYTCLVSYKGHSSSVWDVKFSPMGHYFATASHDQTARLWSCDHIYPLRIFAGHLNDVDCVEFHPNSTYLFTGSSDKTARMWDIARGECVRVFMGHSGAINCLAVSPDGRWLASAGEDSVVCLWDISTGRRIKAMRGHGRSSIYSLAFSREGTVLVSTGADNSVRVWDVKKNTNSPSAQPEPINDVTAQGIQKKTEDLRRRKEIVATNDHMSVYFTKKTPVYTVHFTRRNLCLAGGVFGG

The target of experiment [4] is T4, Taf11, subunit of Komagataella phaffii TFIID (Komagataella phaffii, UniProt F2QRB1 1-281).
T4 construct: Taf11, TFIID subunit of the yeast Komagataella phaffii (formerly Pichia pastoris); histone-fold domain modelled in the cryo-EM map; source: endogenous, K. phaffii nuclear extract; co-purified in TFIID by SBP-tagged Taf2 (streptavidin beads, sucrose gradient)
T4 sequence (looked up): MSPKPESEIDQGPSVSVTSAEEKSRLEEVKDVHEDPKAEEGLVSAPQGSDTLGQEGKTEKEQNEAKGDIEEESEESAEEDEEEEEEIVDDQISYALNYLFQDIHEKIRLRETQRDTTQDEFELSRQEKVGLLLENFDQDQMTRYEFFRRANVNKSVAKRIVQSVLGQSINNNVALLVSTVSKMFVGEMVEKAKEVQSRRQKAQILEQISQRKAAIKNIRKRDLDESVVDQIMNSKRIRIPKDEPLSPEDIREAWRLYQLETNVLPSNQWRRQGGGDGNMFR

The target in experiment [5] is T5, Taf8, subunit of Komagataella phaffii TFIID (Komagataella phaffii, UniProt F2QT15 1-517).
T5 construct: Taf8, TFIID subunit of the yeast Komagataella phaffii (formerly Pichia pastoris); putative helices placed in the cryo-EM map; also called KpTaf8; source: endogenous, K. phaffii nuclear extract; co-purified in TFIID by SBP-tagged Taf2 (streptavidin beads, sucrose gradient)
T5 sequence (looked up): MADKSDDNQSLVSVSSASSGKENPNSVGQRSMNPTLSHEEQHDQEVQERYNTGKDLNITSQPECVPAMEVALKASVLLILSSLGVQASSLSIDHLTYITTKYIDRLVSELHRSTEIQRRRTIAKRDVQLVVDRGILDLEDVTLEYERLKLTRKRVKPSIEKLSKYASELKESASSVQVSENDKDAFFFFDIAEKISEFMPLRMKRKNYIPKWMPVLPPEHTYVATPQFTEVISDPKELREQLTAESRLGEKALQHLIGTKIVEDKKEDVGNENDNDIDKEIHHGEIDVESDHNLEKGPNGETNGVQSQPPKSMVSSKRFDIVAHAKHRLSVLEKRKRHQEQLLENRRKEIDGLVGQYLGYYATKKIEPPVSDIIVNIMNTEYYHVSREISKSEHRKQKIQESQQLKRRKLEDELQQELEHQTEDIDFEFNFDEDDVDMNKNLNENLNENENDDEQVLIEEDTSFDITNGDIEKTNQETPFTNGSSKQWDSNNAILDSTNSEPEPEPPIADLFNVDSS

B1: Taf7, subunit of Komagataella phaffii TFIID (natural protein, UniProt F2QXR8 1-460, looked up)
chain: MIKLKLHTDKKQNTVERRPKIKVKPPINKPESTVIPRIRVKPTRIAGDGYDSEDPDREDDPTTEEAIVMRIVPNDYSLEYVKKCVEQGDFSEISLQWKDKRRAVLRLKDRLYGAKLVDLPTMVEIHKTIDRKNIFKTMDVSQILLVIKELKYESEYLDIQLTASETFDDGLTPPLRGVKKRFDKRMTSKVFQIIEEQVDELFRLDEEAEASKYELVDTEAGTIPSFDADASTPNTKEFTVRGHLDVEDNEDLELELEQAFQQQSDTPLNPQQRSKGGRKTNDSDAHVRFYEQEEEDDEDEETFELKRVCSAEAKVEEGEEEAEEETEETEDDEDDDDEEVVGGKEIISGQRAGIDERLTHTQIIKEEIEELQATIGLKQSDFNKASNPIMKNRISDVIGRLKAELETKLRQVEMEQKEQQNNSNVTSHNIYQQRELDEDEDEDDDEDGDEDDDDDMEDLF
notes: Taf7, TFIID subunit of the yeast Komagataella phaffii (formerly Pichia pastoris); source: endogenous, K. phaffii nuclear extract; co-purified in TFIID by SBP-tagged Taf2 (streptavidin beads, sucrose gradient)
For B1, the binding result in experiment [1] and in experiment [2] was “binds” throughout.

B2: Taf9, subunit of Komagataella phaffii TFIID (natural protein, UniProt F2QTW3 1-153, looked up)
chain: MTNEQAAIPRDVRLLHLIFATQNIYSYQDHVPLQLMDFAYRYTTGTLQDATIYSDHAHASGSHISNAGNAGTNAQLTTEDIRLAIAARTNYQFKPVPPKELLLELAAERNKKPLPAVIPTWGIRLPPEKYCLTGKDWVLEDEEEAVSYKKRKT
notes: Taf9, TFIID subunit of the yeast Komagataella phaffii (formerly Pichia pastoris); histone-fold domain modelled in the cryo-EM map; source: endogenous, K. phaffii nuclear extract; co-purified in TFIID by SBP-tagged Taf2 (streptavidin beads, sucrose gradient)
Take B2: the binding result in experiment [3] and in experiment [4] was “binds” in each case.

B3: Taf10, subunit of Komagataella phaffii TFIID (natural protein, UniProt F2QLJ9 1-217, looked up)
chain: MSTEKLFEDLDEDSLMQDVEGGVEGSMTIEEEPEPNDEKEAPHISMPSLPEYTRKDKTLEEILEMMEDEEFTPIIPDAVTDYYLAKNGFETSDIKIKRILALATQKFISDIAQDAYEYSRIRSSSSVYTSANPQARARQLVAGQQQQQQQQPQQQQQQQPQTGASQPAPTVGGSGGGGGGGGGTSTGTNNKVVLTMDDLRSALGEYGINVKRPNFYR
notes: Taf10, TFIID subunit of the yeast Komagataella phaffii (formerly Pichia pastoris); source: endogenous, K. phaffii nuclear extract; co-purified in TFIID by SBP-tagged Taf2 (streptavidin beads, sucrose gradient)
In the case of B3, in experiment [5], the binding result is “binds”.
